Assay [1] concerns the target Vβ 8.2 TCR on T hybridoma.
For assay [2], the target named is I-Eα chain of the murine MHC (class II) (mouse).

Consider “Native Mycoplasma arthritidis T-cell mitogen (MAM) (ligand)”, for which the IL-2 (U/ml) produced by T hybridomas + APCs was determined as 0 U/ml with Vβ 1 TCR on T hybridoma; 640 U/ml in the assay with Vβ 6 TCR on T hybridoma; 0 U/ml with Vβ 3 TCR on T hybridoma; 232 U/ml in assay [1]; 0 U/ml with Vβ 11 TCR on T hybridoma. For the same substance, the Uptake of 3H-TdR by Mouse Lymphocytes (counts per minute × 10^-3) in assay [2] is 108.
MBP-MAM fusion protein showed an Uptake of 3H-TdR by Mouse Lymphocytes (counts per minute × 10^-3) in assay [2] of 80.7.
In the case of “Staphylococcus enterotoxin A (from UniProt P0A0L2) (ligand)”, the IL-2 (U/ml) produced by T hybridomas + APCs with Vβ 1 TCR on T hybridoma was 691 U/ml; with Vβ 3 TCR on T hybridoma, 1880 U/ml; in assay [1] it was 0 U/ml; with Vβ 11 TCR on T hybridoma it was 1180 U/ml.
On to “Staphylococcus enterotoxin B (from UniProt P01552) (ligand)”, for which the IL-2 (U/ml) produced by T hybridomas + APCs with Vβ 1 TCR on T hybridoma came out at 0 U/ml; in the assay with Vβ 6 TCR on T hybridoma, 0 U/ml; with Vβ 3 TCR on T hybridoma, 1830 U/ml; in assay [1], 608 U/ml; with Vβ 11 TCR on T hybridoma it was 0 U/ml.

Values taken from patent US5795974.
